Data published in paper PMC12094035.

Target: human γ-tubulin ring complex (γ-TuRC), the reconstituted complex without NEDD1 (human) (UniProt P23258)
Assay: cryo-EM structure; NEDD1-containing rec-γ-TuRC; free particles in micrographs of Aher et al. (2024), processed anew; consensus map 4.7 Å; model from AlphaFold 3 predictions fitted to the map and refined, side chains trimmed to β-carbons

With “neural precursor cell expressed, developmentally downregulated 1 (NEDD1), full length, in the reconstituted human γ-TuRC (from UniProt Q8NHV4 1-660) (natural protein)” the stoichiometry N was 4.
